Measured values as given in article PMC4219823, “A Nuclear Factor of High Mobility Group Box Protein in Toxoplasma gondii”.

Target: T1, TgGRA1 (Toxoplasma gondii, UniProt P13403 25-190)
T1 sequence: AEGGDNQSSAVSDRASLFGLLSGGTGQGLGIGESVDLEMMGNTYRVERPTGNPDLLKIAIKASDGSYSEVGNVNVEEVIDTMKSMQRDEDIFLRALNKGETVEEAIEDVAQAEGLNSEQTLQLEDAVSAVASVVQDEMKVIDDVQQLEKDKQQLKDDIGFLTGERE
Assay: EMSA; 2 mg/mL protein
Details: protein: recombinant; tags: His; label: biotin (TdT labeling); four-way junction of 4 strands

B1: 4H cruciform DNA (4H-a/4H-b/4H-c/4H-d) (structured_DNA)
DNA 1: AACAGTAGCTTATTCGAGCTCGCGCCCTATCACGACGACTA
DNA 2: GTAGTCGTCGTGATAGGTGCAGGGGTTATAGGG
DNA 3: CCCTATAACCCCTGCATTGAATTCCAGTCTGATAA
DNA 4: TTTATCAGACTGGAATTCAAGCGCGAGCTCGAATAAGCTACTGT
- binding result: no binding
